In the supplement of paper PMC11246515:
± gives the standard deviation of the averaged measurements.

Assay: total protein half-life in vivo (active degradation + dilution); higher = more stable protein
[1] = E. coli NCM3722 delta-clpP delta-lon delta-hslV, growth: N-lim chemostat, doubling time 6 h
[2] = E. coli NCM3722 delta-clpP, growth: N-lim chemostat, doubling time 6 h
[3] = E. coli NCM3722 delta-hslV, growth: N-lim chemostat, doubling time 6 h
[4] = E. coli NCM3722 delta-lon, growth: N-lim chemostat, doubling time 6 h
[5] = E. coli NCM3722 delta-smpB, growth: N-lim chemostat, doubling time 6 h
[6] = wild type E. coli NCM3722, growth: C-lim chemostat, doubling time 3 h
[7] = wild type E. coli NCM3722, growth: C-lim chemostat, doubling time 6 h
[8] = wild type E. coli NCM3722, growth: C-lim chemostat, doubling time 12 h
[9] = wild type E. coli NCM3722, growth: N-lim chemostat, doubling time 6 h
[10] = wild type E. coli NCM3722, growth: N-lim chemostat, doubling time 12 h
[11] = wild type E. coli NCM3722, growth: P-lim chemostat, doubling time 6 h
[12] = wild type E. coli NCM3722, growth: P-lim chemostat, doubling time 12 h

MSRIIMLIPTGTSVGLTSVSLGVIRAMERKGVRLSVFKPIAQPRTGGDAPDQTTTIVRANSSTTTAAEPLKMSYVEGLLSSNQKDVLMEEIVANYHANTKDAEVVLVEGLVPTRKHQFAQSLNYEIAKTLNAEIVFVMSQGTDTPEQLKERIELTRNSFGGAKNTNITGVIVNKLNAPVDEQGRTRPDLSEIFDDSSKAKVNNVDPAKLQESSPLPVLGAVPWSFDLIATRAIDMARHLNATIINEGDINTRRVKSVTFCARSIPHMLEHFRAGSLLVTSADRPDVLVAACLAAMNGVEIGALLLTGGYEMDARISKLCERAFATGLPVFMVNTNTWQTSLSLQSFNLEVPVDDHERIEKVQEYVANYINADWIESLTATSERSRRLSPPAFRYQLTELARKAGKRIVLPEGDEPRTVKAAAICAERGIATCVLLGNPAEINRVAASQGVELGAGIEIVDPEVVRESYVGRLVELRKNKGMTETVAREQLEDNVVLGTLMLEQDEVDGLVSGAVHTTANTIRPPLQLIKTAPGSSLVSSVFFMLLPEQVYVYGDCAINPDPTAEQLAEIAIQSADSAAAFGIEPRVAMLSYSTGTSGAGSDVEKVREATRLAQEKRPDLMIDGPLQYDAAVMADVAKSKAPNSPVAGRATVFIFPDLNTGNTTYKAVQRSADLISIGPMLQGMRKPVNDLSRGALVDDIVYTIALTAIQSAQQQ [P0A9M8]
total protein half-life in vivo [1]: 6.116 ± 0.01 h
total protein half-life in vivo [2]: 5.89 ± 0.68 h
total protein half-life in vivo [3]: 6.22 ± 0.38 h
total protein half-life in vivo [4]: 6.08 ± 0.32 h
total protein half-life in vivo [5]: 5.973 ± 0.042 h
total protein half-life in vivo [6]: 3.14 ± 0.039 h
total protein half-life in vivo [7]: 5.61 ± 0.24 h
total protein half-life in vivo [8]: 11 ± 0.26 h
total protein half-life in vivo [9]: 6.14 ± 0.12 h
total protein half-life in vivo [10]: 11.99 ± 0.054 h
total protein half-life in vivo [11]: 6.32 ± 0.58 h
total protein half-life in vivo [12]: 11.8 ± 0.43 h

MNTLPEHSCDVLIIGSGAAGLSLALRLADQHQVIVLSKGPVTEGSTFYAQGGIAAVFDETDSIDSHVEDTLIAGAGICDRHAVEFVASNARSCVQWLIDQGVLFDTHIQPNGEESYHLTREGGHSHRRILHAADATGREVETTLVSKALNHPNIRVLERSNAVDLIVSDKIGLPGTRRVVGAWVWNRNKETVETCHAKAVVLATGGASKVYQYTTNPDISSGDGIAMAWRAGCRVANLEFNQFHPTALYHPQARNFLLTEALRGEGAYLKRPDGTRFMPDFDERGELAPRDIVARAIDHEMKRLGADCMFLDISHKPADFIRQHFPMIYEKLLGLGIDLTQEPVPIVPAAHYTCGGVMVDDHGRTDVEGLYAIGEVSYTGLHGANRMASNSLLECLVYGWSAAEDITRRMPYAHDISTLPPWDESRVENPDERVVIQHNWHELRLFMWDYVGIVRTTKRLERALRRITMLQQEIDEYYAHFRVSNNLLELRNLVQVAELIVRCAMMRKESRGLHFTLDYPELLTHSGPSILSPGNHYINR
total protein half-life in vivo [1]: 4 ± 0.14 h
total protein half-life in vivo [2]: 2.44 ± 0.11 h
total protein half-life in vivo [3]: 2.28 ± 0.26 h
total protein half-life in vivo [4]: 4.14 ± 1.7 h
total protein half-life in vivo [5]: 2.39 ± 0.22 h
total protein half-life in vivo [6]: 2.68 ± 0.063 h
total protein half-life in vivo [7]: 4.41 ± 0.59 h
total protein half-life in vivo [8]: 8.41 ± 0.56 h
total protein half-life in vivo [9]: 2.58 ± 0.22 h
total protein half-life in vivo [10]: 3.51 ± 0.061 h
total protein half-life in vivo [11]: 4.69 ± 0.27 h
total protein half-life in vivo [12]: 8.21 ± 0.71 h

MIDYTAAGFTLLQGAHLYAPEDRGICDVLVANGKIIAVASNIPSDIVPNCTVVDLSGQILCPGFIDQHVHLIGGGGEAGPTTRTPEVALSRLTEAGVTSVVGLLGTDSISRHPESLLAKTRALNEEGISAWMLTGAYHVPSRTITGSVEKDVAIIDRVIGVKCAISDHRSAAPDVYHLANMAAESRVGGLLGGKPGVTVFHMGDSKKALQPIYDLLENCDVPISKLLPTHVNRNVPLFEQALEFARKGGTIDITSSIDEPVAPAEGIARAVQAGIPLARVTLSSDGNGSQPFFDDEGNLTHIGVAGFETLLETVQVLVKDYDFSISDALRPLTSSVAGFLNLTGKGEILPGNDADLLVMTPELRIEQVYARGKLMVKDGKACVKGTFETA
total protein half-life in vivo [1]: 6.21 ± 0.27 h
total protein half-life in vivo [2]: 5.9 ± 0.13 h
total protein half-life in vivo [3]: 5.497 ± 0.0056 h
total protein half-life in vivo [4]: 5.68 ± 0.064 h
total protein half-life in vivo [5]: 5.3 ± 0.21 h
total protein half-life in vivo [6]: 2.93 ± 0.1 h
total protein half-life in vivo [7]: 5.97 ± 0.45 h
total protein half-life in vivo [8]: 12.8 ± 0.66 h
total protein half-life in vivo [9]: 5.29 ± 0.25 h
total protein half-life in vivo [10]: 9.01 ± 0.33 h
total protein half-life in vivo [11]: 6.11 ± 0.39 h
total protein half-life in vivo [12]: 13.1 ± 0.29 h

MQESIQLVIDSLPFLLKGAGYTLQLSIGGMFFGLLLGFILALMRLSPIWPVRWLARFYISIFRGTPLIAQLFMIYYGLPQFGIELDPIPSAMIGLSLNTAAYAAETLRAAISSIDKGQWEAAASIGMTPWQTMRRAILPQAARVALPPLSNSFISLVKDTSLAATIQVPELFRQAQLITSRTLEVFTMYLAASLIYWIMATVLSTLQNHFENQLNRQEREPK [P0AFT2]
total protein half-life in vivo [2]: 7.13 h
total protein half-life in vivo [3]: 7.23 h
total protein half-life in vivo [6]: 3.14 h
total protein half-life in vivo [7]: 5.37 ± 0.3 h
total protein half-life in vivo [8]: 15.7 ± 0.28 h
total protein half-life in vivo [9]: 6.07 ± 0.14 h
total protein half-life in vivo [10]: 11.2 ± 4.2 h
total protein half-life in vivo [11]: 6 ± 0.41 h
total protein half-life in vivo [12]: 11.9 ± 0.19 h

MFLAQEIIRKKRDGHALSDEEIRFFINGIRDNTISEGQIAALAMTIFFHDMTMPERVSLTMAMRDSGTVLDWKSLHLNGPIVDKHSTGGVGDVTSLMLGPMVAACGGYIPMISGRGLGHTGGTLDKLESIPGFDIFPDDNRFREIIKDVGVAIIGQTSSLAPADKRFYATRDITATVDSIPLITASILAKKLAEGLDALVMDVKVGSGAFMPTYELSEALAEAIVGVANGAGVRTTALLTDMNQVLASSAGNAVEVREAVQFLTGEYRNPRLFDVTMALCVEMLISGKLAKDDAEARAKLQAVLDNGKAAEVFGRMVAAQKGPTDFVENYAKYLPTAMLTKAVYADTEGFVSEMDTRALGMAVVAMGGGRRQASDTIDYSVGFTDMARLGDQVDGQRPLAVIHAKDENNWQEAAKAVKAAIKLADKAPESTPTVYRRISE
total protein half-life in vivo [1]: 5.35 ± 0.43 h
total protein half-life in vivo [2]: 5.92 ± 0.45 h
total protein half-life in vivo [3]: 5.18 ± 0.25 h
total protein half-life in vivo [4]: 5.58 ± 0.26 h
total protein half-life in vivo [5]: 5.29 ± 0.068 h
total protein half-life in vivo [6]: 3.127 ± 0.0038 h
total protein half-life in vivo [7]: 5.78 ± 0.25 h
total protein half-life in vivo [9]: 5.36 ± 0.13 h
total protein half-life in vivo [10]: 10.4 ± 1.3 h
total protein half-life in vivo [11]: 6.07 ± 0.16 h
total protein half-life in vivo [12]: 13.1 ± 1.6 h

MNDEMKGKSGKVKVMYVRSDDDSDKRTHNPRTGKGGGRPGKSRADGGRRPARDDKQSQPRDRKWEDSPWRTVSRAPGDETPEKADHGGISGKSFIDPEVLRRQRAEETRVYGENACQALFQSRPEAIVRAWFIQSVTPRFKEALRWMAANRKAYHVVDEAELTKASGTEHHGGVCFLIKKRNGTTVQQWVSQAGAQDCVLALENESNPHNLGGMMRSCAHFGVKGVVVQDAALLESGAAIRTAEGGAEHVQPITGDNIVNVLDDFRQAGYTVVTTSSEQGKPLFKTSLPAKMVLVLGQEYEGLPDAARDPNDLRVKIDGTGNVAGLNISVATGVLLGEWWRQNKA [P0AGJ5]
total protein half-life in vivo [2]: 5.71 ± 0.11 h
total protein half-life in vivo [3]: 4.87 ± 0.12 h
total protein half-life in vivo [4]: 5.2 ± 0.25 h
total protein half-life in vivo [5]: 4.77 ± 0.058 h
total protein half-life in vivo [6]: 2.91 ± 0.33 h
total protein half-life in vivo [7]: 5.57 ± 0.52 h
total protein half-life in vivo [8]: 10.3 ± 0.99 h
total protein half-life in vivo [9]: 5.53 ± 0.15 h
total protein half-life in vivo [10]: 10.7 ± 1.5 h
total protein half-life in vivo [11]: 5.4 ± 0.26 h
total protein half-life in vivo [12]: 10.9 ± 0.76 h
